Numbering of substitutions follows the chain as printed.

The values that follow come from patent US20030113725A1.

The target of series [1] is HA epitope tagged Del301-303 alpha-2B adrenergic receptor (human) (UniProt P18089). The series is described as follows: cell-based or functional assay.
Series [2] concerns the target HA epitope tagged wild-type alpha-2B adrenergic receptor (human) (UniProt P18089). The series is described as follows: cell-based or functional assay.
The subject of series [3] is HA epitope tagged Del301-303 alpha-2B adrenergic receptor.
In another series the target is Gi. The series is described as follows: cell-based or functional assay.
Another series has as its target Gi/Go. The experiment in a line: cell-based or functional assay.

GRK2 (βARK1) (enzyme): the results for the agonist-promoted whole cell receptor phosphorylation (norepinephrine, COS-7 cells coexpressing GRK2) (fold increase) in series [1] and in series [2] were 3.28 and 5.84, respectively.

For GRK2 (βARK1), in series [3], the “agonist-promoted phosphorylation as percent of wild-type” value is on record as “the Del301-303 receptor displayed -56% of wild-type phosphorylation” and the “basal phosphorylation, compared with the wild-type receptor” value was “Basal phosphorylation was equivalent between the two receptors”.

B1: Del322-325 alpha-2C adrenergic receptor, P18825 1-462 (receptor)
chain: MASPALAAALAVAAAAGPNASGAGERGSGGVANASGASWGPPRGQYSAGAVAGLAAVVGFLIVFTVVGNVLVVIAVLTSRALRAPQNLFLVSLASADILVATLVMPFSLANELMAYWYFGQVWCGVYLALDVLFCTSSIVHLCAISLDRYWSVTQAVEYNLKRTPRRVKATIVAVWLISAVISFPPLVSLYRQPDGAAYPQCGLNDETWYILSSCIGSFFAPCLIMGLVYARIYRVAKRRTRTLSEKRAPVGPDGASPTTENGLGAAAGAGENGHCAPPPADVEPDESSAAAERRRRRGALRRGGRRRAGAEGGAGGADGQGAAESGALTASRSPGPGGRLSRASSRSVEFFLSRRRRARSSVCRRKVAQAREKRFTFVLAVVMGVFVLCWFPFFFIYSLYGICREACQVPGPLFKFFFWIGYCNSSLNPVIYTVFNQDFRPSFKHILFRRRRRGFRQ
As for B1, in the series with Gi, the Max Inhibition (%) of adenylyl cyclase, BHT-933 was determined as 26.7%; the Max Inhibition (%) of adenylyl cyclase, UK 14304 was determined as 30.8%; the Max Inhibition (%) of adenylyl cyclase, clonidine worked out at 20.9%; the Max Inhibition (%) of adenylyl cyclase, guanabenz stood at 30%. In the series with Gi, the Max Inhibition (%) of adenylyl cyclase, norepinephrine is 34.9%; the Max Inhibition (%) of adenylyl cyclase, oxymetazoline stood at 12.8%; the impairment of maximal adenylyl cyclase inhibition against wild-type (higher expressing CHO lines) worked out at 50 % impairment; the inhibition of adenylyl cyclase (epinephrine, lower expressing CHO lines) turned out to be 10 % inhibition. In the series with Gi, this molecule displayed a maximal inhibition of adenylyl cyclase (epinephrine, higher expressing CHO lines) of 31 % inhibition. In the series with Gi/Go, this molecule registered an epinephrine-stimulated accumulation of inositol phosphates (10 µM, intact CHO cells) of 11 % over basal; a high affinity dissociation constant KH of the agonist epinephrine (competition with [3H]yohimbine without GTP) of 7.3 nM; an impairment of inositol phosphate accumulation against wild-type of 60 % impairment; a percentage of receptors in the high-affinity state (% RH), epinephrine competition without GTP of 31%.

B2: wild-type alpha-2C adrenergic receptor, P18825 1-462 (receptor)
chain: MASPALAAALAVAAAAGPNASGAGERGSGGVANASGASWGPPRGQYSAGAVAGLAAVVGFLIVFTVVGNVLVVIAVLTSRALRAPQNLFLVSLASADILVATLVMPFSLANELMAYWYFGQVWCGVYLALDVLFCTSSIVHLCAISLDRYWSVTQAVEYNLKRTPRRVKATIVAVWLISAVISFPPLVSLYRQPDGAAYPQCGLNDETWYILSSCIGSFFAPCLIMGLVYARIYRVAKRRTRTLSEKRAPVGPDGASPTTENGLGAAAGAGENGHCAPPPADVEPDESSAAAERRRRRGALRRGGRRRAGAEGGAGGADGQGAGPGAAESGALTASRSPGPGGRLSRASSRSVEFFLSRRRRARSSVCRRKVAQAREKRFTFVLAVVMGVFVLCWFPFFFIYSLYGICREACQVPGPLFKFFFWIGYCNSSLNPVIYTVFNQDFRPSFKHILFRRRRRGFRQ
As for B2, in the series with Gi, the Max Inhibition (%) of adenylyl cyclase, BHT-933 came to 56.8%; the Max Inhibition (%) of adenylyl cyclase, UK 14304 is 67.6%; the Max Inhibition (%) of adenylyl cyclase, clonidine came to 38.5%; the Max Inhibition (%) of adenylyl cyclase, guanabenz was 53.8%. In the series with Gi, the Max Inhibition (%) of adenylyl cyclase, norepinephrine stood at 76.6%; the Max Inhibition (%) of adenylyl cyclase, oxymetazoline amounted to 27%; the inhibition of adenylyl cyclase (epinephrine, lower expressing CHO lines) amounted to 73 % inhibition; the maximal inhibition of adenylyl cyclase (epinephrine, higher expressing CHO lines) stood at 60 % inhibition. Also, in the series with Gi/Go, the epinephrine-stimulated accumulation of inositol phosphates (10 µM, intact CHO cells) was 30 % over basal; the high affinity dissociation constant KH of the agonist epinephrine (competition with [3H]yohimbine without GTP) is 3.7 nM; the percentage of receptors in the high-affinity state (% RH), epinephrine competition without GTP was 49%.

B3: polymorphic Lys251 alpha-2A adrenergic receptor, P08913 16-465 (receptor)
chain: MGSLQPDAGNASWNGTEAPGGGARATPYSLQVTLTLVCLAGLLMLLTVFGNVLVIIAVFTSRALKAPQNLFLVSLASADILVATLVIPFSLANEVMGYWYFGKAWCEIYLALDVLFCTSSIVHLCAISLDRYWSITQAIEYNLKRTPRRIKAIIITVWVISAVISFPPLISIEKKGGGGGPQPAEPRCEINDQKWYVISSCIGSFFAPCLIMILVYVRIYQIAKRRTRVPPSRRGPDAVAAPPGGTERRPKGLGPERSAGPGGAEAEPLPTQLNGAPGEPAPAGPRDTDALDLEESSSSDHAERPPGPRRPERGPRGKGKARASQVKPGDSLPRRGPGATGIGTPAAGPGEERVGAAKASRWRGRQNREKRFTFVLAVVIGVFVVCWFPFFFTYTLTAVGCSVPRTLFKFFFWFGYCNSSLNPVIYTIFNHDFRRAFKKILCRGDRKRIV
In the series with Gi, B3 had an inhibition of adenylyl cyclase (epinephrine, CHO membranes) of 60 % inhibition; a maximal inhibition of adenylyl cyclase (partial agonist oxymetazoline, CHO membranes) of 50 % inhibition; a stimulation of MAP kinase (10 µM epinephrine, CHO cells) (fold increase over basal) of 57.

B4: wild-type Asn251 alpha-2A adrenergic receptor, P08913 16-465 (receptor)
chain: B3 chain with K251N
In the series with Gi, B4 came in with an inhibition of adenylyl cyclase (epinephrine, CHO membranes) of 46 % inhibition; a maximal inhibition of adenylyl cyclase (partial agonist oxymetazoline, CHO membranes) of 35 % inhibition; a stimulation of MAP kinase (10 µM epinephrine, CHO cells) (fold increase over basal) of 15.
